Source: PMC10998612
Blank lines part the entries; values can stand above or below the substance they belong to.

How the values were obtained:
[1] = biological target: fluorescein-labeled peptide corresponding to repeat 3 (PPP1R15A^420-466), wild type (human) (UniProt O75807); experiment: fluorescence polarisation; 5 µL 100 nM fluorescein-labeled peptide probe mixed with 5 µL of increasing concentrations of eIF2 trimer or eIF2α-NTD; 20 mM Tris pH 7.4, 0.1 M NaCl, 1 mM TCEP, 0.01% Triton X-100; one-site binding fit; three experiments
[2] = biological target: extended PPP1R15A^325-636, wild type (bacterially expressed) (human) (UniProt O75807)
[3] = biological target: eIF2 trimer, endogenous (detected by its α subunit), P05198;P20042;P41091; experiment: GFP immunoprecipitation (co-IP) and immunoblot, quantified; conditions: HEK293T cells; 20% (v/v) of immunoprecipitation fractions analyzed; parent: est. 0.14; read off a plot

Sequence of extended PPP1R15A^325-636, wild type (bacterially expressed) (human) (O75807 325-636): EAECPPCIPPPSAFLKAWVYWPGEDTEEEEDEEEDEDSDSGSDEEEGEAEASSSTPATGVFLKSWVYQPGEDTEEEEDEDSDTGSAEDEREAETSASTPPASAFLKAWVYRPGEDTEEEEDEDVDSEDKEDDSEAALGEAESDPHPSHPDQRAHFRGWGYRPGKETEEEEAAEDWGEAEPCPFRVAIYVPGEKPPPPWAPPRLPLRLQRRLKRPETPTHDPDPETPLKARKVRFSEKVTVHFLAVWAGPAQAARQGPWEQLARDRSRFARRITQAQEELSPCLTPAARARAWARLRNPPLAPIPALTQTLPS
Sequence of eIF2^P trimer (phosphorylated eIF2) (P05198 whole entry): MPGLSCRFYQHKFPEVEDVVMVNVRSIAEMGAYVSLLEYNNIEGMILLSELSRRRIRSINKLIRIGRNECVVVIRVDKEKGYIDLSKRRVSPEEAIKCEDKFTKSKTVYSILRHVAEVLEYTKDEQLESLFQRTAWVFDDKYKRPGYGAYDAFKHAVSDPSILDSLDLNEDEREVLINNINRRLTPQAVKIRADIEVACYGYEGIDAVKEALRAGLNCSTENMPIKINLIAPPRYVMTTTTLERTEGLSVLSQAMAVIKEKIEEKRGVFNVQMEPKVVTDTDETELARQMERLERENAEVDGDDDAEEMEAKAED
Sequence of eIF2^P trimer (phosphorylated eIF2) (P20042 whole entry): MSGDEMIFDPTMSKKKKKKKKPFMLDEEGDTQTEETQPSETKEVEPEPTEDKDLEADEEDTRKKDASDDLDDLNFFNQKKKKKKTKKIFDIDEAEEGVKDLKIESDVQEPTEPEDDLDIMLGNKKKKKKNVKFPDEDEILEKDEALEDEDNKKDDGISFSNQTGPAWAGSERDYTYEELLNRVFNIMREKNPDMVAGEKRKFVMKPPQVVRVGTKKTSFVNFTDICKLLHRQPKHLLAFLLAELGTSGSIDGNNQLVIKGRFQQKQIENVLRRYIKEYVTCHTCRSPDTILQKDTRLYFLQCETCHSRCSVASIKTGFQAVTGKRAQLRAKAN
Sequence of eIF2^P trimer (phosphorylated eIF2) (P41091 whole entry): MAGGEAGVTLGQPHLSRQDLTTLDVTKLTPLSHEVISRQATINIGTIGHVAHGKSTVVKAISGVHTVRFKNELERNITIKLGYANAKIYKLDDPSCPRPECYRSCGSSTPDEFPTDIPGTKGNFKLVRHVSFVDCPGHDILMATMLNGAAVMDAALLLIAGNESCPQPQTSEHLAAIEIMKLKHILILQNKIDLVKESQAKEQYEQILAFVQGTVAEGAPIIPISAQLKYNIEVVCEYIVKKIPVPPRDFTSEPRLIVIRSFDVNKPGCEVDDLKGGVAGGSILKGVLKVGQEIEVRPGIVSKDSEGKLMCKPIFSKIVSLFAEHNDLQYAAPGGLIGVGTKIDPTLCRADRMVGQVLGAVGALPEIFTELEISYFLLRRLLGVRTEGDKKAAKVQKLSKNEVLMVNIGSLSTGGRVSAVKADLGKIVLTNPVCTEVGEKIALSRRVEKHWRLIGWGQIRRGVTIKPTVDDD
Sequence of eIF2 trimer (recombinant, not phosphorylated) (P05198 whole entry): as the sequence (P05198 whole entry) above
Sequence of eIF2 trimer (recombinant, not phosphorylated) (P20042 whole entry): as the sequence (P20042 whole entry) above
Sequence of eIF2 trimer (recombinant, not phosphorylated) (P41091 whole entry): as the sequence (P41091 whole entry) above
Sequence of full-length human PPP1R15A-GFP fusion protein, wild type (O75807 whole entry, stated change not applied, the tested form may be a part): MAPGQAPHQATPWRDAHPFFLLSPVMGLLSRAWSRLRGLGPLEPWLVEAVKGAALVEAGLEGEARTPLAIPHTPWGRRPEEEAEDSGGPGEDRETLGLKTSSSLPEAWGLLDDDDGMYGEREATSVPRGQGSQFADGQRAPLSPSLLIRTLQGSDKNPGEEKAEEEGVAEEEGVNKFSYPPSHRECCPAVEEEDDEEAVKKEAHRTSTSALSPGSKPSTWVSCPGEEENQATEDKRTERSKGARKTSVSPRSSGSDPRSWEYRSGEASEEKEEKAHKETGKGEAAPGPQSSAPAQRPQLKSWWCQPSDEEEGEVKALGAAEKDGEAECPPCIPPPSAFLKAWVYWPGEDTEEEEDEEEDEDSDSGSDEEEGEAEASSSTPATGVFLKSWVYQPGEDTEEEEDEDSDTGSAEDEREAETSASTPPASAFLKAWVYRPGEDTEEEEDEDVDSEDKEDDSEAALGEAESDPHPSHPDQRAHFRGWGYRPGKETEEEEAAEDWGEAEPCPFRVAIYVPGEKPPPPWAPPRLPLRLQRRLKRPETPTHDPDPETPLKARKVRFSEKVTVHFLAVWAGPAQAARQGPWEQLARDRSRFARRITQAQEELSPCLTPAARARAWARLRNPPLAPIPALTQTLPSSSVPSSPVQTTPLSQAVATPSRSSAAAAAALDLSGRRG
Sequence of fluorescein-labeled peptide corresponding to repeat 3 (PPP1R15A^420-466), wild type (human) (O75807 420-466): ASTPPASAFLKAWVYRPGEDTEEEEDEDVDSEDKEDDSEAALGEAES

K (1/2max) [1]: 220 nM
Substance: eIF2 trimer (recombinant, not phosphorylated) (from UniProt P05198 1-315; P20042 1-333; P41091 1-472) (complex)

dephosphorylation of the eIF2^P trimer in vitro (PhosTag SDS-PAGE, kcat/Km) by the extended PPP1R15A^325-636-PP1-G-actin holophosphatase against the core PPP1R15A^533-624-PP1-G-actin holophosphatase (fold (kcat/Km)) [2]: 10
Substance: eIF2^P trimer (phosphorylated eIF2) (from UniProt P05198 1-315; P20042 1-333; P41091 1-472) (complex)

other: eIF2α/PP1 signal ratio [3]: 0.0084
Substance: full-length human PPP1R15A-GFP fusion protein, wild type (from UniProt O75807) F338A; W342A; F386A; W389A; F428A; W432A; F479A; W482A
